Columns and labels:
Experiment in all cases: holdup assay
Set-up in all cases: key: below the threshold = too weak to quantify, mostly under pKd 3.1 to 4
DFNB31_2, Q9P202 = molecular target: T1, DFNB31_2, Q9P202
T1 sequence (Q9P202 274-371, limits assumed, looked up): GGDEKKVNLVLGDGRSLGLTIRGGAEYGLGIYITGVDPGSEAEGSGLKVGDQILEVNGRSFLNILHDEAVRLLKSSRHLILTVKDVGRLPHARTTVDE

DLG1_1, Q12959 = molecular target: DLG1_1, Q12959
PCLO, Q9Y6V0 = molecular target: T2, PCLO, Q9Y6V0
T2 sequence (Q9Y6V0 4491-4600, limits assumed, looked up): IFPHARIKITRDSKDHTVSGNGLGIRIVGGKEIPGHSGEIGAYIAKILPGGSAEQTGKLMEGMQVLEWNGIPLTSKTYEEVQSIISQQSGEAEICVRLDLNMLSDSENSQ

SCRIB_1, Q14160 = molecular target: SCRIB_1, Q14160
GRASP, Q7Z6J2 = molecular target: GRASP, Q7Z6J2
RAPGEF6, Q8TEU7 = molecular target: T3, RAPGEF6, Q8TEU7
T3 sequence (Q8TEU7 525-625, limits assumed, looked up): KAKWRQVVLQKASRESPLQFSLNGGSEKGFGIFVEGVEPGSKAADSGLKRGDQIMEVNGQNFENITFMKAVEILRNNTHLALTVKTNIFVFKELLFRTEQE

LAP2, Q96RT1 = molecular target: LAP2, Q96RT1
Inadl_2, Q8NI35 = molecular target: Inadl_2, Q8NI35
SYNJ2BP, P57105 = molecular target: T4, SYNJ2BP, P57105
T4 sequence (P57105 8-110, limits assumed, looked up): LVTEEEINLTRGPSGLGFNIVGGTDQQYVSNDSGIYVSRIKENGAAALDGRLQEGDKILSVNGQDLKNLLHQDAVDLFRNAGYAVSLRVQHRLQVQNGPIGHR

NHERF4_2, Q86UT5 = molecular target: NHERF4_2, Q86UT5
TJP2_1, Q9UDY2 = molecular target: TJP2_1, Q9UDY2
RADIL, Q96JH8 = molecular target: T5, RADIL, Q96JH8
T5 sequence (Q96JH8 971-1071, limits assumed, looked up): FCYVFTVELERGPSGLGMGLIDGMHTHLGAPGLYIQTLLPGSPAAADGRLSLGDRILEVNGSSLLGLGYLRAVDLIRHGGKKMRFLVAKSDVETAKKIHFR

GORASP1, Q9BQQ3 = molecular target: GORASP1, Q9BQQ3
SNTG2, Q9NY99 = molecular target: T6, SNTG2, Q9NY99
T6 sequence (Q9NY99 68-166, limits assumed, looked up): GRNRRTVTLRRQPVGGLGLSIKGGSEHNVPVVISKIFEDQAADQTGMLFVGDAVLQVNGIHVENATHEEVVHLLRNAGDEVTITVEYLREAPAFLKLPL

PICK1, Q9NRD5 = molecular target: PICK1, Q9NRD5
LNX1_1, Q8TBB1 = molecular target: LNX1_1, Q8TBB1
MPP7, Q5T2T1 = molecular target: T7, MPP7, Q5T2T1
T7 sequence (Q5T2T1 134-230, limits assumed, looked up): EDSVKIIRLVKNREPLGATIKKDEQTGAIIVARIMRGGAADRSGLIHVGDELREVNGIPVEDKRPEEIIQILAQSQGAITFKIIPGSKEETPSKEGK

MAGI2_6, Q86UL8 = molecular target: MAGI2_6, Q86UL8
FRMPD2_3, Q68DX3 = molecular target: FRMPD2_3, Q68DX3
FRMPD1, Q5SYB0 = molecular target: T8, FRMPD1, Q5SYB0
T8 sequence (Q5SYB0 52-145, limits assumed, looked up): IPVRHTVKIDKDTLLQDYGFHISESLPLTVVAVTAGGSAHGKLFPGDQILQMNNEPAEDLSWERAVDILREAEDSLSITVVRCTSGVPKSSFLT

IL16_1, Q14005 = molecular target: IL16_1, Q14005
CARD11, Q9BXL7 = molecular target: T9, CARD11, Q9BXL7
T9 sequence (Q9BXL7 662-765, limits assumed, looked up): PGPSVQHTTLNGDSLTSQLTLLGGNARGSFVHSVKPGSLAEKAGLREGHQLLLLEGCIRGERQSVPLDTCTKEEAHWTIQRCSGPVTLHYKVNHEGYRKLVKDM

MPP2, Q14168 = molecular target: T10, MPP2, Q14168
T10 sequence (Q14168 180-250, limits assumed, looked up): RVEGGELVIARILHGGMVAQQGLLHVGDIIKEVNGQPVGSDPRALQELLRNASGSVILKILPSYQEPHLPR

MAGI1_2, Q96QZ7 = molecular target: MAGI1_2, Q96QZ7
GRIP2_3, Q9C0E4 = molecular target: GRIP2_3, Q9C0E4
LIN7A, O14910 = molecular target: T11, LIN7A, O14910
T11 sequence (O14910 103-200, limits assumed, looked up): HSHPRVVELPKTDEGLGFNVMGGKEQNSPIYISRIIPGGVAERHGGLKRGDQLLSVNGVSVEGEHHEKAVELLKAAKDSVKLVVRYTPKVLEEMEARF

MAGI3_2, Q5TCQ9 = molecular target: MAGI3_2, Q5TCQ9
[1] = plain residues with an end cap or a label only (N-terminal biotin on a linker: ttds)
[2] = plain residues with an end cap or a label only (N-terminal biotin on a linker: ahx)
[3] = plain residues with an end cap or a label only (N-terminal biotin on a linker: ado-ado)

Sequence of MAGI3_2, Q5TCQ9 (Q5TCQ9 398-503): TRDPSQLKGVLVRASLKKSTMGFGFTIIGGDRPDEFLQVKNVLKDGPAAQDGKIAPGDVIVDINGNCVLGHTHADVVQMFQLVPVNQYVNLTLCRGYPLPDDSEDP
Sequence of GRASP, Q7Z6J2 (Q7Z6J2 96-193): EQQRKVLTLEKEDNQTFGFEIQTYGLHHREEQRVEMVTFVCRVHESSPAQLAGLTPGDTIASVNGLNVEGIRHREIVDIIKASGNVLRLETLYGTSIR
Sequence of IL16_1, Q14005 (Q14005 210-306): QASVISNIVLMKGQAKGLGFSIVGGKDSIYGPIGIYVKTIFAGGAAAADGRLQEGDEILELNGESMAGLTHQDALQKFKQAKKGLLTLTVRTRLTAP
Sequence of GORASP1, Q9BQQ3 (Q9BQQ3 1-208): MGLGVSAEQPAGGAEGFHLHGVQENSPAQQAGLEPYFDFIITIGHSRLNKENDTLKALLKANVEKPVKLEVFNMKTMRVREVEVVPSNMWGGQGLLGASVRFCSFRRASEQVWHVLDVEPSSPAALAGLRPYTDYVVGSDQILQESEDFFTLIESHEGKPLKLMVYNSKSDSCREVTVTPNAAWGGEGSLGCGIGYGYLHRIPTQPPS
Sequence of LAP2, Q96RT1 (Q96RT1 other isoform, or with tags, fused parts or gaps): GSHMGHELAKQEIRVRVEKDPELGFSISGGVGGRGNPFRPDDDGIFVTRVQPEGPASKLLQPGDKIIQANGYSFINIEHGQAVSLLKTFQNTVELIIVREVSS
Sequence of FRMPD2_3, Q68DX3 (Q68DX3 1073-1166): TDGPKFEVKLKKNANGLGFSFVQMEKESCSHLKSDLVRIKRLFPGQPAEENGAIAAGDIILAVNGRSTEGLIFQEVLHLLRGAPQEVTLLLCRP
Sequence of NHERF4_2, Q86UT5 (Q86UT5 220-308): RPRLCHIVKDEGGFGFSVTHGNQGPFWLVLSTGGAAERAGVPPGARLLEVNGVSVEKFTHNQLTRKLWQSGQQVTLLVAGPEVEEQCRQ
Sequence of MAGI1_2, Q96QZ7 (Q96QZ7 456-580): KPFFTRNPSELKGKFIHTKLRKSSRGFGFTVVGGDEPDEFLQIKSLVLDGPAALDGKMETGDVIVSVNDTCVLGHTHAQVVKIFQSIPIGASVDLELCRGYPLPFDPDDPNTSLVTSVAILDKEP
Sequence of TJP2_1, Q9UDY2 (Q9UDY2 24-128): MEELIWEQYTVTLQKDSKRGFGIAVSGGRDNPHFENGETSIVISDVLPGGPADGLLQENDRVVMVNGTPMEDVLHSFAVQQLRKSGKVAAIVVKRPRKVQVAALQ
Sequence of PICK1, Q9NRD5 (Q9NRD5 17-115): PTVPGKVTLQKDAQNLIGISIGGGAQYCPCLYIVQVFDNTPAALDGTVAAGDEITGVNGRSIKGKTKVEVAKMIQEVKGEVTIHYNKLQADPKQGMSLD
Sequence of MAGI2_6, Q86UL8 (Q86UL8 1141-1229): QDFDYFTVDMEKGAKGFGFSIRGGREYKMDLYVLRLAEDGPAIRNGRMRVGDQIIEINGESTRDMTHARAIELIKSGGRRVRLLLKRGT
Sequence of LNX1_1, Q8TBB1 (Q8TBB1 261-371): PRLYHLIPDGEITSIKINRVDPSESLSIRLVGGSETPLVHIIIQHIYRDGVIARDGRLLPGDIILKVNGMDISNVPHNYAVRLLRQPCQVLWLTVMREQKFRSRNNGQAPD
Sequence of Inadl_2, Q8NI35 (Q8NI35 238-335): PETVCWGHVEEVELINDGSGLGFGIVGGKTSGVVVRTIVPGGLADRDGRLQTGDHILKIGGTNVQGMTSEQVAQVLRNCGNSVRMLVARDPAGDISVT
Sequence of SCRIB_1, Q14160 (Q14160 718-814): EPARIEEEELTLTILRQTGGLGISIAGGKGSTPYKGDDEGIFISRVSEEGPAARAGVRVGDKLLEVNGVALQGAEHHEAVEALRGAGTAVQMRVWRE
Sequence of GRIP2_3, Q9C0E4 (Q9C0E4 238-339): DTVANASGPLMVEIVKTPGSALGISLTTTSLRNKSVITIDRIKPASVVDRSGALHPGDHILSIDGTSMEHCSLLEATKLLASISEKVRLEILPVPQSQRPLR

B1: GPR6, P46095 (peptide)
chain: PFRSRSPSEV
DFNB31_2, Q9P202; [1]
  pKd: below the threshold
DLG1_1, Q12959; [1]
  pKd: below the threshold
PCLO, Q9Y6V0; [1]
  pKd: below the threshold
SCRIB_1, Q14160; [1]
  pKd: below the threshold
GRASP, Q7Z6J2; [1]
  pKd: below the threshold
RAPGEF6, Q8TEU7; [1]
  pKd: below the threshold
LAP2, Q96RT1; [1]
  pKd: below the threshold
Inadl_2, Q8NI35; [1]
  pKd: below the threshold
SYNJ2BP, P57105; [1]
  pKd: 4.18
NHERF4_2, Q86UT5; [1]
  pKd: below the threshold
TJP2_1, Q9UDY2; [1]
  pKd: below the threshold
RADIL, Q96JH8; [1]
  pKd: below the threshold
GORASP1, Q9BQQ3; [1]
  pKd: below the threshold
SNTG2, Q9NY99; [1]
  pKd: below the threshold
PICK1, Q9NRD5; [1]
  pKd: below the threshold
LNX1_1, Q8TBB1; [1]
  pKd: below the threshold
MPP7, Q5T2T1; [1]
  pKd: below the threshold
MAGI2_6, Q86UL8; [1]
  pKd: below the threshold
FRMPD2_3, Q68DX3; [1]
  pKd: below the threshold
FRMPD1, Q5SYB0; [1]
  pKd: below the threshold
IL16_1, Q14005; [1]
  pKd: below the threshold
CARD11, Q9BXL7; [1]
  pKd: below the threshold
MPP2, Q14168; [1]
  pKd: below the threshold
MAGI1_2, Q96QZ7; [1]
  pKd: below the threshold
GRIP2_3, Q9C0E4; [1]
  pKd: below the threshold
LIN7A, O14910; [1]
  pKd: below the threshold
MAGI3_2, Q5TCQ9; [1]
  pKd: 4.16

B2: RASSF6, Q6ZTQ3 (peptide)
chain: KLVIKTETTV
DFNB31_2, Q9P202; [1]
  pKd: below the threshold
DLG1_1, Q12959; [1]
  pKd: 4.88
PCLO, Q9Y6V0; [1]
  pKd: below the threshold
SCRIB_1, Q14160; [1]
  pKd: 3.9
GRASP, Q7Z6J2; [1]
  pKd: 3.51
RAPGEF6, Q8TEU7; [1]
  pKd: 3.46
LAP2, Q96RT1; [1]
  pKd: below the threshold
Inadl_2, Q8NI35; [1]
  pKd: below the threshold
SYNJ2BP, P57105; [1]
  pKd: 4.97
NHERF4_2, Q86UT5; [1]
  pKd: below the threshold
TJP2_1, Q9UDY2; [1]
  pKd: below the threshold
RADIL, Q96JH8; [1]
  pKd: below the threshold
GORASP1, Q9BQQ3; [1]
  pKd: below the threshold
SNTG2, Q9NY99; [1]
  pKd: 3.99
PICK1, Q9NRD5; [1]
  pKd: below the threshold
LNX1_1, Q8TBB1; [1]
  pKd: below the threshold
MPP7, Q5T2T1; [1]
  pKd: below the threshold
MAGI2_6, Q86UL8; [1]
  pKd: below the threshold
FRMPD2_3, Q68DX3; [1]
  pKd: below the threshold
FRMPD1, Q5SYB0; [1]
  pKd: below the threshold
IL16_1, Q14005; [1]
  pKd: below the threshold
CARD11, Q9BXL7; [1]
  pKd: below the threshold
MPP2, Q14168; [1]
  pKd: below the threshold
MAGI1_2, Q96QZ7; [1]
  pKd: 4.82
GRIP2_3, Q9C0E4; [1]
  pKd: below the threshold
LIN7A, O14910; [1]
  pKd: 3.65
MAGI3_2, Q5TCQ9; [1]
  pKd: 5.22

B3: USH1C, Q9Y6N9 (peptide)
chain: KEYDDELTFF
DFNB31_2, Q9P202; [2]
  pKd: below the threshold
DLG1_1, Q12959; [2]
  pKd: below the threshold
PCLO, Q9Y6V0; [2]
  pKd: below the threshold
SCRIB_1, Q14160; [2]
  pKd: below the threshold
GRASP, Q7Z6J2; [2]
  pKd: 4.41
RAPGEF6, Q8TEU7; [2]
  pKd: below the threshold
LAP2, Q96RT1; [2]
  pKd: below the threshold
Inadl_2, Q8NI35; [2]
  pKd: 4.09
SYNJ2BP, P57105; [2]
  pKd: below the threshold
NHERF4_2, Q86UT5; [2]
  pKd: below the threshold
TJP2_1, Q9UDY2; [2]
  pKd: below the threshold
RADIL, Q96JH8; [2]
  pKd: 3.78
GORASP1, Q9BQQ3; [2]
  pKd: 3.56
SNTG2, Q9NY99; [2]
  pKd: below the threshold
PICK1, Q9NRD5; [2]
  pKd: below the threshold
LNX1_1, Q8TBB1; [2]
  pKd: below the threshold
MPP7, Q5T2T1; [2]
  pKd: below the threshold
MAGI2_6, Q86UL8; [2]
  pKd: below the threshold
FRMPD2_3, Q68DX3; [2]
  pKd: below the threshold
FRMPD1, Q5SYB0; [2]
  pKd: below the threshold
IL16_1, Q14005; [2]
  pKd: below the threshold
CARD11, Q9BXL7; [2]
  pKd: below the threshold
MPP2, Q14168; [2]
  pKd: below the threshold
MAGI1_2, Q96QZ7; [2]
  pKd: below the threshold
GRIP2_3, Q9C0E4; [2]
  pKd: below the threshold
LIN7A, O14910; [2]
  pKd: below the threshold
MAGI3_2, Q5TCQ9; [2]
  pKd: below the threshold

B4: FMNL3, Q8IVF7 (peptide)
chain: DAAHHDESNC
DFNB31_2, Q9P202; [3]
  pKd: below the threshold
DLG1_1, Q12959; [3]
  pKd: below the threshold
PCLO, Q9Y6V0; [3]
  pKd: below the threshold
SCRIB_1, Q14160; [3]
  pKd: below the threshold
GRASP, Q7Z6J2; [3]
  pKd: below the threshold
RAPGEF6, Q8TEU7; [3]
  pKd: below the threshold
LAP2, Q96RT1; [3]
  pKd: below the threshold
Inadl_2, Q8NI35; [3]
  pKd: below the threshold
SYNJ2BP, P57105; [3]
  pKd: 3.5
NHERF4_2, Q86UT5; [3]
  pKd: below the threshold
TJP2_1, Q9UDY2; [3]
  pKd: below the threshold
RADIL, Q96JH8; [3]
  pKd: below the threshold
GORASP1, Q9BQQ3; [3]
  pKd: below the threshold
SNTG2, Q9NY99; [3]
  pKd: below the threshold
PICK1, Q9NRD5; [3]
  pKd: below the threshold
LNX1_1, Q8TBB1; [3]
  pKd: below the threshold
MPP7, Q5T2T1; [3]
  pKd: below the threshold
MAGI2_6, Q86UL8; [3]
  pKd: below the threshold
FRMPD2_3, Q68DX3; [3]
  pKd: below the threshold
FRMPD1, Q5SYB0; [3]
  pKd: below the threshold
IL16_1, Q14005; [3]
  pKd: below the threshold
CARD11, Q9BXL7; [3]
  pKd: below the threshold
MPP2, Q14168; [3]
  pKd: below the threshold
MAGI1_2, Q96QZ7; [3]
  pKd: below the threshold
GRIP2_3, Q9C0E4; [3]
  pKd: below the threshold
LIN7A, O14910; [3]
  pKd: below the threshold
MAGI3_2, Q5TCQ9; [3]
  pKd: below the threshold

B5: SLC1A3, P43003 (peptide)
chain: EKPIDSETKM
DFNB31_2, Q9P202; [3]
  pKd: below the threshold
DLG1_1, Q12959; [3]
  pKd: below the threshold
PCLO, Q9Y6V0; [3]
  pKd: below the threshold
SCRIB_1, Q14160; [3]
  pKd: 3.5
GRASP, Q7Z6J2; [3]
  pKd: below the threshold
RAPGEF6, Q8TEU7; [3]
  pKd: below the threshold
LAP2, Q96RT1; [3]
  pKd: below the threshold
Inadl_2, Q8NI35; [3]
  pKd: below the threshold
SYNJ2BP, P57105; [3]
  pKd: below the threshold
NHERF4_2, Q86UT5; [3]
  pKd: below the threshold
TJP2_1, Q9UDY2; [3]
  pKd: below the threshold
RADIL, Q96JH8; [3]
  pKd: below the threshold
GORASP1, Q9BQQ3; [3]
  pKd: below the threshold
SNTG2, Q9NY99; [3]
  pKd: below the threshold
PICK1, Q9NRD5; [3]
  pKd: below the threshold
LNX1_1, Q8TBB1; [3]
  pKd: below the threshold
MPP7, Q5T2T1; [3]
  pKd: below the threshold
MAGI2_6, Q86UL8; [3]
  pKd: below the threshold
FRMPD2_3, Q68DX3; [3]
  pKd: below the threshold
FRMPD1, Q5SYB0; [3]
  pKd: below the threshold
IL16_1, Q14005; [3]
  pKd: below the threshold
CARD11, Q9BXL7; [3]
  pKd: below the threshold
MPP2, Q14168; [3]
  pKd: below the threshold
MAGI1_2, Q96QZ7; [3]
  pKd: below the threshold
GRIP2_3, Q9C0E4; [3]
  pKd: below the threshold
LIN7A, O14910; [3]
  pKd: below the threshold
MAGI3_2, Q5TCQ9; [3]
  pKd: below the threshold
